Laboratory results: the supplement of paper PMC6757056
± gives the standard deviation of the averaged measurements.

B1: library; a variant is named by its letters at N, in order (parent)
chain: GCUGUCACCGAGAAACUGUGAAGUAUAUCUUAAACCUGGGCACUUAAAAGAUAUAUGGAGUUAGUAGUGCAACCUGCUCGGUCUGAUGAGUCCNNNNNNGGACGAAACAGC

Assays:
[1] = variants of: B1; experiment: normalized RNA/DNA level without ligand (relative to sTRSVctl = 100) (log10 (% of sTRSVctl)); HEK293T; ligand: cyclic di-GMP (c-di-GMP-II aptamer); higher = less ribozyme self-cleavage, higher mRNA level; details: reporter: mCherry (pCS4076), ligand present: no
Procedure, shortened: (§1)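 Library plasmids carrying ribozyme switches linked to mCherry, or to eGFP in some ligand experiments, were transfected into HEK293T at 4 µg per 6-well well, with any ligand added 1 h earlier. Seventy-two hours on, total RNA was extracted with EDTA and reverse-transcribed, amplified, barcoded and sequenced. RNA level was RNA over DNA reads normalized to a spiked-in non-cleaving sequence or to the top sequences, then scaled and log-transformed. The top set was 25 sequences, the transform was ×100 and log10, and sequences needed ≥100 DNA reads.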

[2] = variants of: B1; experiment: normalized RNA/DNA level with ligand (relative to sTRSVctl = 100) (log10 (% of sTRSVctl)); HEK293T; ligand: cyclic di-GMP (c-di-GMP-II aptamer); ligand concentration (+) RNA-Seq: 1 mM; higher = less ribozyme self-cleavage, higher mRNA level; details: reporter: mCherry (pCS4076), ligand present: yes
Procedure, shortened: as §1

| Variant | normalized RNA/DNA level without ligand (log10) [1] | normalized RNA/DNA level with ligand (log10) [2] |
| --- | --- | --- |
| CCGAGU | 1.63 ± 0.025 | 1.8 ± 0.13 |
| UAAGAG | 1.61 ± 0.017 | 1.74 ± 0.086 |
| AUCGAG | 1.56 ± 0.058 | 1.78 ± 0.1 |
| UUCGUC | 1.76 ± 0.037 | 1.88 ± 0.058 |
| GCUGAC | 1.47 ± 0.069 | 1.67 ± 0.1 |
| CAUUGG | 1.804 ± 0.0056 | 1.93 ± 0.15 |
| AGCAGG | 1.822 ± 0.018 | 1.85 ± 0.1 |
| GCCUGG | 1.78 ± 0.061 | 1.91 ± 0.09 |
| GCGCCU | 1.774 ± 0.0061 | 1.88 ± 0.083 |
| CUUGCC | 1.82 ± 0.019 | 1.9 ± 0.077 |
| GGCACA | 1.69 ± 0.024 | 1.8 ± 0.12 |
| GCAGCA | 1.82 ± 0.022 | 1.89 ± 0.092 |
| AUAUAU | 1.678 ± 0.0055 | 1.83 ± 0.11 |
| CACUUC | 1.71 ± 0.022 | 1.83 ± 0.16 |
| AUCGCC | 1.78 ± 0.013 | 1.88 ± 0.15 |
| CGGCCC | 1.937 ± 0.016 | 1.94 ± 0.061 |
| AAUCAU | 1.64 ± 0.02 | 1.78 ± 0.093 |
| GUUGGU | 1.611 ± 0.011 | 1.77 ± 0.1 |
| CCUACU | 1.581 ± 0.011 | 1.76 ± 0.12 |
| CCUGCG | 1.8 ± 0.026 | 1.88 ± 0.13 |
| UCGUGC | 1.67 ± 0.017 | 1.86 ± 0.12 |
| AGCGAC | 1.65 ± 0.052 | 1.81 ± 0.077 |
| CAUUUC | 1.67 ± 0.022 | 1.82 ± 0.14 |

| Variant | normalized RNA/DNA level without ligand (log10) [1] | normalized RNA/DNA level with ligand (log10) [2] |
| --- | --- | --- |
| AUUACC | 1.73 ± 0.057 | 1.88 ± 0.052 |
| AGCUCA | 1.69 ± 0.013 | 1.81 ± 0.12 |
| UCGUCU | 1.72 ± 0.043 | 1.89 ± 0.094 |
| UCGUCC | 1.794 ± 0.01 | 1.9 ± 0.081 |
| UUGUUG | 1.67 ± 0.053 | 1.86 ± 0.13 |
| GAGGGA | 1.65 ± 0.027 | 1.74 ± 0.083 |
| GGUUGC | 1.7 ± 0.018 | 1.87 ± 0.021 |
| ACUUAC | 1.7124 ± 0.0011 | 1.84 ± 0.096 |
| UGGGUG | 1.73 ± 0.04 | 1.86 ± 0.098 |
| GACGUA | 1.665 ± 0.013 | 1.8 ± 0.085 |
| AUUUCG | 1.66 ± 0.028 | 1.82 ± 0.09 |
| CCGGCC | 1.77 ± 0.04 | 1.86 ± 0.15 |
| AACUAC | 1.7 ± 0.019 | 1.84 ± 0.12 |
| CGAAUC | 1.6 ± 0.043 | 1.78 ± 0.11 |
| AAUCGU | 1.65 ± 0.038 | 1.81 ± 0.11 |
| GCCCUC | 1.744 ± 0.0049 | 1.87 ± 0.12 |
| AUCACU | 1.74 ± 0.057 | 1.88 ± 0.12 |
| AUCACG | 1.64 ± 0.012 | 1.78 ± 0.13 |
| UCCUUC | 1.71 ± 0.027 | 1.87 ± 0.11 |
| UCUAUU | 1.63 ± 0.034 | 1.78 ± 0.094 |
| UUUCAA | 1.712 ± 0.0062 | 1.86 ± 0.092 |
| AGACUG | 1.749 ± 0.013 | 1.84 ± 0.071 |
| AAUACC | 1.71 ± 0.031 | 1.86 ± 0.069 |

| Variant | normalized RNA/DNA level without ligand (log10) [1] | normalized RNA/DNA level with ligand (log10) [2] |
| --- | --- | --- |
| UAGAUA | 1.614 ± 0.012 | 1.78 ± 0.11 |
| UUUGUC | 1.795 ± 0.011 | 1.9 ± 0.11 |
| AUAAGG | 1.54 ± 0.057 | 1.71 ± 0.12 |
| AUAAGC | 1.6 ± 0.022 | 1.77 ± 0.082 |
| AUAAGA | 1.4 ± 0.11 | 1.62 ± 0.12 |
| CGACGU | 1.66 ± 0.034 | 1.84 ± 0.048 |
| ACCCGU | 1.73 ± 0.023 | 1.84 ± 0.08 |
| ACAAAC | 1.55 ± 0.084 | 1.72 ± 0.091 |
| GUACAC | 1.67 ± 0.03 | 1.79 ± 0.1 |
| GCCGCG | 1.79 ± 0.03 | 1.92 ± 0.07 |
| UAAAGC | 1.676 ± 0.0024 | 1.82 ± 0.1 |
| AGAACG | 1.463 ± 0.001 | 1.67 ± 0.094 |
| CUCAGG | 1.8 ± 0.037 | 1.87 ± 0.14 |
| CACCAC | 1.675 ± 0.0098 | 1.85 ± 0.096 |
| CGCAAG | 1.77 ± 0.024 | 1.86 ± 0.088 |
| AGGUUA | 1.54 ± 0.037 | 1.64 ± 0.18 |
| UGAAUG | 1.72 ± 0.037 | 1.86 ± 0.12 |
| GUGCGU | 1.69 ± 0.052 | 1.84 ± 0.14 |
| GCCUUG | 1.576 ± 0.007 | 1.81 ± 0.1 |
| GCUCCC | 1.71 ± 0.052 | 1.83 ± 0.17 |
| UACUCU | 1.73 ± 0.053 | 1.84 ± 0.07 |
| UACUCG | 1.77 ± 0.06 | 1.88 ± 0.17 |
| UCCACG | 1.77 ± 0.057 | 1.87 ± 0.11 |

| Variant | normalized RNA/DNA level without ligand (log10) [1] | normalized RNA/DNA level with ligand (log10) [2] |
| --- | --- | --- |
| CGGCGG | 1.68 ± 0.059 | 1.81 ± 0.077 |
| UCAGCU | 1.671 ± 0.0017 | 1.82 ± 0.15 |
| AAUCUC | 1.74 ± 0.032 | 1.86 ± 0.075 |
| GUGUAC | 1.58 ± 0.025 | 1.78 ± 0.089 |
| GUGUAA | 1.48 ± 0.027 | 1.67 ± 0.1 |
| AGACAU | 1.62 ± 0.027 | 1.79 ± 0.12 |
| AGACAC | 1.68 ± 0.042 | 1.82 ± 0.1 |
| AUAUCU | 1.73 ± 0.062 | 1.86 ± 0.13 |
| AUAUCG | 1.56 ± 0.022 | 1.75 ± 0.068 |
| AUAUCA | 1.63 ± 0.032 | 1.79 ± 0.12 |
| CCCCGG | 1.83 ± 0.049 | 1.94 ± 0.11 |
| AUCUAG | 1.62 ± 0.032 | 1.8 ± 0.092 |
| AGAUGG | 1.55 ± 0.089 | 1.73 ± 0.082 |
| AUUAAC | 1.655 ± 0.015 | 1.76 ± 0.15 |
| UGAGGC | 1.74 ± 0.028 | 1.87 ± 0.12 |
| UAGGUU | 1.67 ± 0.051 | 1.82 ± 0.11 |
| GCUAGG | 1.54 ± 0.12 | 1.7 ± 0.062 |
| ACGAUC | 1.56 ± 0.074 | 1.75 ± 0.085 |
| CACGAC | 1.67 ± 0.053 | 1.83 ± 0.13 |
| GGCAUG | 1.68 ± 0.085 | 1.7 ± 0.081 |
| CGCGGC | 1.74 ± 0.03 | 1.87 ± 0.11 |
| AUUCUG | 1.68 ± 0.071 | 1.81 ± 0.11 |
| GAGCGG | 1.88 ± 0.079 | 1.96 ± 0.096 |

| Variant | normalized RNA/DNA level without ligand (log10) [1] | normalized RNA/DNA level with ligand (log10) [2] |
| --- | --- | --- |
| GAUUUU | 1.656 ± 0.01 | 1.81 ± 0.14 |
| GAGGAA | 1.6 ± 0.055 | 1.72 ± 0.092 |
| GAGGAC | 1.67 ± 0.053 | 1.79 ± 0.11 |
| CUUUUC | 1.73 ± 0.022 | 1.85 ± 0.12 |
| AUGCGC | 1.732 ± 0.016 | 1.86 ± 0.099 |
| AAAGAG | 1.44 ± 0.097 | 1.63 ± 0.1 |
| GCGUUA | 1.54 ± 0.054 | 1.75 ± 0.11 |
| UCAAAG | 1.602 ± 0.012 | 1.77 ± 0.12 |
| UGAUGC | 1.754 ± 0.01 | 1.84 ± 0.09 |
| UAGCAU | 1.653 ± 0.0034 | 1.8 ± 0.11 |
| AUGGAC | 1.6 ± 0.055 | 1.76 ± 0.091 |
| CGAGCA | 1.83 ± 0.067 | 1.89 ± 0.12 |
| AACCUC | 1.757 ± 0.0019 | 1.85 ± 0.058 |
| AAGGCA | 1.63 ± 0.05 | 1.71 ± 0.096 |
| UGUGUG | 1.69 ± 0.053 | 1.86 ± 0.056 |
| ACCGUU | 1.52 ± 0.028 | 1.72 ± 0.1 |
| CAUAUG | 1.718 ± 0.017 | 1.81 ± 0.053 |
| GGAACC | 1.74 ± 0.039 | 1.86 ± 0.14 |
| CCGUGG | 1.53 ± 0.061 | 1.69 ± 0.14 |
| GUCUAA | 1.56 ± 0.069 | 1.72 ± 0.098 |
| AUAACU | 1.67 ± 0.025 | 1.82 ± 0.068 |
| AAGAUU | 1.63 ± 0.043 | 1.8 ± 0.054 |
| AACAAA | 1.45 ± 0.11 | 1.65 ± 0.079 |
